The record followed here is article PMC7388967.

The target in experiment [1] is Collagen I Rat Protein, Tail (rat collagen type I) (rat) (UniProt P02454). Put plainly: whole-cell adhesion assay (fluorescence of sfGFP-expressing bacteria); commercial 96-well plates pre-coated with rat collagen type I (GIBCO); YadA induced with 0.2 µg/ml ATc, compared with the not-induced control.
Experiment [2] concerns the target Collagen I Bovine Protein (bovine collagen type I) (bovine) (UniProt P02453). Description: whole-cell adhesion assay (fluorescence of sfGFP-expressing bacteria); strain AS76; wells coated with 100 µg/ml bovine collagen type I for 30 min, with or without blocking with 50 mg/ml BSA in PBS for 30 min; YadA induced with 0.1 µg/ml ATc, compared with uninduced cells.
UniProt P02453, sequence (P02453 162-1217, chain 1 of 2): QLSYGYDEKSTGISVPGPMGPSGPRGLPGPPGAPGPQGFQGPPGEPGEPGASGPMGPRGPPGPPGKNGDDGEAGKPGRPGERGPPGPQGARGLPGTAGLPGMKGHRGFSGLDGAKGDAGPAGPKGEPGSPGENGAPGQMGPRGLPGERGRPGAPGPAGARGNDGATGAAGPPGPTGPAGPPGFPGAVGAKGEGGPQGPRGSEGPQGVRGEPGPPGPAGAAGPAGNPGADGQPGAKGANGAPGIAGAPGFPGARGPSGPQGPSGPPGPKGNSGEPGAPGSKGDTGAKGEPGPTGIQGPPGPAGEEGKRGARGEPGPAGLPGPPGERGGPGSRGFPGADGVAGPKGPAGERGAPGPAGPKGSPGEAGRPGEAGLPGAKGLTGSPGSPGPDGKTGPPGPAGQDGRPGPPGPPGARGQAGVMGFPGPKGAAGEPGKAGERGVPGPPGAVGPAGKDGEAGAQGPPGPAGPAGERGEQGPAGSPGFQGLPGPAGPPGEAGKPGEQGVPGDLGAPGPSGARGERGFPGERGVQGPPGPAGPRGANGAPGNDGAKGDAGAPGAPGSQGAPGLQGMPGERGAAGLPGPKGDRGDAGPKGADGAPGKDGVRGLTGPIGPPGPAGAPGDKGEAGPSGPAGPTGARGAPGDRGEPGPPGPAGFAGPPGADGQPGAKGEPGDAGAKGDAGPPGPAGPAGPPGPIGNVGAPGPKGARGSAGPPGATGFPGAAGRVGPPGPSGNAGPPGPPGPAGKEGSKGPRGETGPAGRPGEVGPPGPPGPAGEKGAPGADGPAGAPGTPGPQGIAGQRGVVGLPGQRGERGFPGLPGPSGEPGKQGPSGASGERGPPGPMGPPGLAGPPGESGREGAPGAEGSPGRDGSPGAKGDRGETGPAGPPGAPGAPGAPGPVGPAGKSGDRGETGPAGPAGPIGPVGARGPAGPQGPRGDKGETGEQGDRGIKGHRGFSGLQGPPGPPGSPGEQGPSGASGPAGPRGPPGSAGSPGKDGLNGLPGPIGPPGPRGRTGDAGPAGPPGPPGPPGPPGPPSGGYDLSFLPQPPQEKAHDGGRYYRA
UniProt P02453, sequence (P02465 80-1117, chain 2 of 2, further chain): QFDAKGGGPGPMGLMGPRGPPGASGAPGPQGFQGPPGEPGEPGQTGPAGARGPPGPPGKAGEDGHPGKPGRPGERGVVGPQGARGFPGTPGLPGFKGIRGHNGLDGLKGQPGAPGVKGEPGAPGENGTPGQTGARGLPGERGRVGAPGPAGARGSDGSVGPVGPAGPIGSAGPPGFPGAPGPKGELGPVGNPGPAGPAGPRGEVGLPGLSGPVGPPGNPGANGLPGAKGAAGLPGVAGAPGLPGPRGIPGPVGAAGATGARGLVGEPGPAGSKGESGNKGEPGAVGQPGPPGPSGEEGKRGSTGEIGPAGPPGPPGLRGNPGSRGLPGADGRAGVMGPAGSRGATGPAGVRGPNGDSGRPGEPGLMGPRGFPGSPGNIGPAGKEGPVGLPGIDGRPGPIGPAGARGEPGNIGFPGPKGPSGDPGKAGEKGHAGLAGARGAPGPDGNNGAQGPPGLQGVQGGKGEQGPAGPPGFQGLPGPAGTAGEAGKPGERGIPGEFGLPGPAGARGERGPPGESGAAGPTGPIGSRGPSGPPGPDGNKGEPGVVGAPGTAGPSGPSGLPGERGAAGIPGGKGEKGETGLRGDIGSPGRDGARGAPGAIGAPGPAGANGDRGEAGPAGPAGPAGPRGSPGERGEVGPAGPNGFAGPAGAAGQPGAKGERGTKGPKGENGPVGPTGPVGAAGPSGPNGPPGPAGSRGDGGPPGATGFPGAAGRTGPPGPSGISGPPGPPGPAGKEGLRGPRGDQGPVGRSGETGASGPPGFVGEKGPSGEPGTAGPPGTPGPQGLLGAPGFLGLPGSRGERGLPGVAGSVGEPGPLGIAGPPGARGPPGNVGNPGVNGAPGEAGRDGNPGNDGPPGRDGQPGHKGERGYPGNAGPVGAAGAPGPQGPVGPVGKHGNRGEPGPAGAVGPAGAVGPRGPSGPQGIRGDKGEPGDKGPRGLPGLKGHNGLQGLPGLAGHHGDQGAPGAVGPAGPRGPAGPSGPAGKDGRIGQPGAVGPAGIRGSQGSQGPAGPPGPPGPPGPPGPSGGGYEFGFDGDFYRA

UniProt P02454, sequence (P02454 152-1207, chain 1 of 2): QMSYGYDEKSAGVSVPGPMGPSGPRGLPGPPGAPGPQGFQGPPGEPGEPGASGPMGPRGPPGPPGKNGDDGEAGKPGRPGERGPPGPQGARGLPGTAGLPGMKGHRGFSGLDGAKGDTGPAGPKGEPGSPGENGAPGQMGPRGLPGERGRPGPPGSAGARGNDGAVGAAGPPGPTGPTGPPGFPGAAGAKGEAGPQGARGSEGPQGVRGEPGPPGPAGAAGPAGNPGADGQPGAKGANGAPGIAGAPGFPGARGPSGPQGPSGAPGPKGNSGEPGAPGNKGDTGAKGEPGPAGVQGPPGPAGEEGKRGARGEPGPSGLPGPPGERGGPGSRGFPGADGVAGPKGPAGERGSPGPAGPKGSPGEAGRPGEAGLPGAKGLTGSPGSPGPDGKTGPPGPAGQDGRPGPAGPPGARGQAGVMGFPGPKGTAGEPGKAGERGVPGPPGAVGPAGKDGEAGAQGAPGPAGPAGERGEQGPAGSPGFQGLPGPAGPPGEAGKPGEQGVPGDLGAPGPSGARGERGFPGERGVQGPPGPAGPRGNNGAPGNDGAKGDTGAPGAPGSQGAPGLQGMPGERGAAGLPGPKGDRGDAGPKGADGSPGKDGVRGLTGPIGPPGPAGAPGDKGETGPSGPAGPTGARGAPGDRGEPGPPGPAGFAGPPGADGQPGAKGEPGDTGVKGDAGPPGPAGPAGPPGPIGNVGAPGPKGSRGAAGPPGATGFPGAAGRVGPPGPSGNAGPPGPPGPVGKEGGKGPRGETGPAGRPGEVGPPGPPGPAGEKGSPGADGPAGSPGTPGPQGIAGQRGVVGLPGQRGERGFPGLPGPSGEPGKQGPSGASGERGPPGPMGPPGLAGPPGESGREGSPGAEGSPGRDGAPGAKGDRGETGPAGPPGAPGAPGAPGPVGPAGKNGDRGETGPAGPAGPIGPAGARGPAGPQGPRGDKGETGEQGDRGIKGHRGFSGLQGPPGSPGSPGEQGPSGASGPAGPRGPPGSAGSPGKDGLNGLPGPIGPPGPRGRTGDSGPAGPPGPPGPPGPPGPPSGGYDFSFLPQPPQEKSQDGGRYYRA
UniProt P02454, sequence (P02466 86-1125, chain 2 of 2, further chain): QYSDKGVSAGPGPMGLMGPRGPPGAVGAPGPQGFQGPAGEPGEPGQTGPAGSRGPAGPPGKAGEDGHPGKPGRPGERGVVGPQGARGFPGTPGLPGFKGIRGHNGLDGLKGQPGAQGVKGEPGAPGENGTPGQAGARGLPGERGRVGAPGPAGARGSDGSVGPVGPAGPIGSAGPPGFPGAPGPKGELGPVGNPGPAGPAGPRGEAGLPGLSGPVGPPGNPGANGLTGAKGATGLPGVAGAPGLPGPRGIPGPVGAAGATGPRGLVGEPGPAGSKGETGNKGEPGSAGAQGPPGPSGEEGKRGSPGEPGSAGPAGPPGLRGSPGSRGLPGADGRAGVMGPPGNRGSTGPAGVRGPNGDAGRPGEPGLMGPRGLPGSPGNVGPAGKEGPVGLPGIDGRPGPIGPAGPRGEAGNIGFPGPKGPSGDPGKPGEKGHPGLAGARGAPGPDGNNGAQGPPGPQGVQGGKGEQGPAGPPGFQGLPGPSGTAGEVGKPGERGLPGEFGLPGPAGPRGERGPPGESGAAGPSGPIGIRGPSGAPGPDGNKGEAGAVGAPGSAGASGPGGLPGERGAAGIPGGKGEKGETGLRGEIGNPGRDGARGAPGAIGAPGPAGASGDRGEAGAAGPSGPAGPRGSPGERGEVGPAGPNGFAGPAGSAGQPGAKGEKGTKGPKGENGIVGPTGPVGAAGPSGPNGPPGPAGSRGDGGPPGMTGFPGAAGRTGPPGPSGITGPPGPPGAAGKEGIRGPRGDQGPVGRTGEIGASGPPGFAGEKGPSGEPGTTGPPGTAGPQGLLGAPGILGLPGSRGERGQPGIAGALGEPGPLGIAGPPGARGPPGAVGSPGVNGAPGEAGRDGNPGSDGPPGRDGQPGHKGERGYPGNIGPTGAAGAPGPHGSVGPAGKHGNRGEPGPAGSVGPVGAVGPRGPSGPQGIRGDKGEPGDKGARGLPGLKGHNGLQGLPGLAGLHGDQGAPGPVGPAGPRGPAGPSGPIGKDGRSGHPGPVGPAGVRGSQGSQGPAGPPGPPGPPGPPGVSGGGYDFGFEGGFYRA

“Yersinia enterocolitica Adhesin A (YadA), wild type, on the surface of E. coli cells (from UniProt A1JUB7 26-422) (natural protein)” gave a fold difference of signal, induced against not-induced control in experiment [1] of 2.5 fold. In experiment [2], this substance gave a fold change of signal, YadA-expressing against uninduced cells (collagen-coated, BSA-blocked wells) of 4.1 fold and a fold change of signal, YadA-expressing against uninduced cells (collagen-coated, not BSA-blocked wells) of 4.4 fold.
